Target: the molecule itself
Assay: SEC; Superdex 200 HR 10/30, running buffer with 0.02 % Triton X-100, pH 7.0, 50 mM sodium phosphate, 0.10 M NaCl, 4 °C, 0.15 mL/min; column calibrated with protein standards; dimer peak run again after 5 days at 4 °C; fractions analysed by SDS-PAGE; (αβ)2 dimer to (αβ) monomers

B1: Hydrogenase-1 from E. coli, (αβ) heterodimer of large and small subunit (complex)
chain 1: MSTQYETQGYTINNAGRRLVVDPITRIEGHMRCEVNINDQNVITNAVSCGTMFRGLEIILQGRDPRDAWAFVERICGVCTGVHALASVYAIEDAIGIKVPDNANIIRNIMLATLWCHDHLVHFYQLAGMDWIDVLDALKADPRKTSELAQSLSSWPKSSPGYFFDVQNRLKKFVEGGQLGIFRNGYWGHPQYKLPPEANLMGFAHYLEALDFQREIVKIHAVFGGKNPHPNWIVGGMPCAINIDESGAVGAVNMERLNLVQSIITRTADFINNVMIPDALAIGQFNKPWSEIGTGLSDKCVLSYGAFPDIANDFGEKSLLMPGGAVINGDFNNVLPVDLVDPQQVQEFVDHAWYRYPNDQVGRHPFDGITDPWYNPGDVKGSDTNIQQLNEQERYSWIKAPRWRGNAMEVGPLARTLIAYHKGDAATVESVDRMMSALNLPLSGIQSTLGRILCRAHEAQWAAGKLQYFFDKLMTNLKNGNLATASTEKWEPATWPTECRGVGFTEAPRGALGHWAAIRDGKIDLYQCVVPTTWNASPRDPKGQIGAYEAALMNTKMAIPEQPLEILRTLHSFDPCLACSTH
chain 2: LENKPRIPVVWIHGLECTCCTESFIRSAHPLAKDVILSLISLDYDDTLMAAAGTQAEEVFEDIITQYNGKYILAVEGNPPLGEQGMFCISSGRPFIEKLKRAAAGASAIIAWGTCASWGCVQAARPNPTQATPIDKVITDKPIIKVPGCPPIPDVMSAIITYMVTFDRLPDVDRMGRPLMFYGQRIHDKCYRRAHFDAGEFVQSWDDDAARKGYCLYKMGCKGPTTYNACSSTRWNDGVSFPIQSGHGCLGCAENGFWDRGSFYSRVVDIPQMGTHSTADTVGLTALGVVAAAVGVHAVASAVDQRRRHNQQPTETEHQPGNEDKQA
notes: large (α) subunit of E. coli Hydrogenase-1, holds the [NiFe] active site; printed mass 64.6 kDa; small (β) subunit of E. coli Hydrogenase-1, holds the FeS clusters; printed mass 36.8 kDa; Purified by Ni-NTA, so one subunit should carry a His tag; Cytochrome b subunits are said to be normally lost during homogenisation; Two copies of this heterodimer form the (αβ)2 dimer; also called Hyd-1; Hyd-1 …
B1 was tested, and the “stoichiometry N” value was 2.
